The values that follow come from patent US20230313305A1, “METHODS AND USES OF INFLAMMATORY BOWEL DISEASE BIOMARKERS” (Washington University, priority 2017, published 2023).

For the assay, the system named is latent TGFβ. Description: Cleavage of latent TGFβ by tPA in cell free assay. It is filed as biochemical. To be noted: cell free assay (FIG. 22).

B1: tPA: serine protease that converts plasminogen to plasmin (protein, UniProt P00750 36-562, looked up)
Tissue-type plasminogen …: SYQVICRDEKTQMIYQQHQSWLRPVLRSNRVEYCWCNSGRAQCHSVPVKSCSEPRCFNGGTCQQALYFSDFVCQCPEGFAGKCCEIDTRATCYEDQGISYRGTWSTAESGAECTNWNSSALAQKPYSGRRPDAIRLGLGNHNYCRNPDRDSKPWCYVFKAGKYSSEFCSTPACSEGNSDCYFGNGSAYRGTHSLTESGASCLPWNSMILIGKVYTAQNPSAQALGLGKHNYCRNPDGDAKPWCHVLKNRRLTWEYCDVPSCSTCGLRQYSQPQFRIKGGLFADIASHPWQAAIFAKHRRSPGERFLCGGILISSCWILSAAHCFQERFPPHHLTVILGRTYRVVPGEEEQKFEVEKYIVHKEFDDDTYDNDIALLQLKSDSSRCAQESSVVRTVCLPPADLQLPDWTECELSGYGKHEALSPFYSERLKEAHVRLYPSSRCTSQHLLNRTVTDNMLCAGDTRSGGPQANLHDACQGDSGGPLVCLNDGRMTLVGIISWGLGCGQKDVPGVYTKVTNYLDWIRDNMRP
For the molecule B1, the “cleavage of latent TGFβ” value is “can directly and indirectly cleave”.
